Experimental data: patent publication US20230312753A1 (IMMUNORIZON, published 2023)

What was measured:
[1] = target: T1, 5T4 on cells (NCI-H226 endogenous; CHO over-expressing 5T4) (UniProt Q13641 32-420, limits assumed); test: FACS on NCI-H226 cells, endogenous 5T4 (FIG. 45B)
T1 construct: whole, on cells
T1 sequence (looked up): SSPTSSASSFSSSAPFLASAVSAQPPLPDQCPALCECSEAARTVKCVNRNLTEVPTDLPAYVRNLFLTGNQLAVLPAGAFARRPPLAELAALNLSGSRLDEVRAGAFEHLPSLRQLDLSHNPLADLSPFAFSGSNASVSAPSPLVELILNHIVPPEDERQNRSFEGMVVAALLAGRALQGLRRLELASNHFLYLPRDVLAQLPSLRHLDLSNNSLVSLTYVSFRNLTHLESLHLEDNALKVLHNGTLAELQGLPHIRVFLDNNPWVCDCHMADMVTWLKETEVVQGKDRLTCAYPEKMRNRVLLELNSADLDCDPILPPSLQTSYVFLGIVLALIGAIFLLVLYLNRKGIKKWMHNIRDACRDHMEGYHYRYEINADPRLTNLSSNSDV
Description: (§1) Suspension cultured cells was harvested directly, and adherent cell were digested using TrypLE Express Enzyme (cat: 12604-013, supplier Life technologies). Centrifuge at 1000 rpm for 5 min and discard the supernatant. Cells are suspended at a concentration of 2×10⁶/mL in FACS buffer (2% FBS in PBS) and add 100 µL/well of cell suspension to the plate (cat #3799, supplier Corning). Centrifuging the plates at 2000 rpm for 5 min and discard the supernatant. Re-suspend the cells in 100 µL/well of Tribody set antibodies (400 nM start, 4-fold dilution, 8 point including 0 point) and incubate the plate for 60 min at 4° C. Centrifuge the plate at 2000 rpm, 4° C. for 5 min and discard supernatant. Then wash the cells 3 times with 170 µL FACS buffer. Re-suspend the cells at 100 µL/well with secondary antibody (goat anti-human Ig Fab-FITC, Cat # 2085-02, Southern biotech) with 1:400 dilution and incubate the plate for 30 min at 4° C. in dark. Centrifuge the plate at 2000 rpm, 4° C. for 5 min and discard supernatant. […] The fluorescence intensity of the staining was measured using flow cytometer (BD, FACSVerse). The geometric mean fluorescence intensity (GMFI; median fluorescence intensity (MFI)) of set antibodies staining was calculated (BD FACSuite software). Dose-response curves were generated and EC50s for thetrispecific variants binding were calculated using GraphPad Prism software.

[2] = target: T2, h5T4-His (recombinant human 5T4) (human, UniProt Q13641 32-355, limits assumed); test: ELISA on coated h5T4-His (FIG. 43B)
T2 construct: Bought protein; also called recombinant 5T4
T2 sequence (looked up): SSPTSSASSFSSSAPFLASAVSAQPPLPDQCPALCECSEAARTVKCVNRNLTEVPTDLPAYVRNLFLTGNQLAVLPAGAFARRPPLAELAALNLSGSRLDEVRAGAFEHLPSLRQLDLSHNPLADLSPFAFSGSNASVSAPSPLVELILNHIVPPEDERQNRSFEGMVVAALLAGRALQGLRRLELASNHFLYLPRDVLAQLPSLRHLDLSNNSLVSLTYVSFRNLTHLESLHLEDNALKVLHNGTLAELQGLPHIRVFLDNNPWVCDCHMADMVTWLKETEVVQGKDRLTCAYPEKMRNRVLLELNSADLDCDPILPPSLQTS
Description: (§2) Methods: ELISA binding of Tribody/ProTribody antibody constructs to antigens: Dilute target protein (hCD3epsilon-His (cat # 10977-H08S, supplier Sino Biological); h5T4-His (cat# 19845-H08H, supplier Sino Biological); NKG2A-CD94-ECD-hFc, Lot:20200724002, provided by CP; or NKG2D-ECD-hFc, Lot: 20200413002, provided by CP) into PBS with final concentration of 0.01 µg/mL for hCD3epsilon-His, 0.3 µg/mL for h5T4-His, 1 µg/mL for NKG2A-CD94-ECD-hFc and 0.7 µg/mL for hNKG2D-ECD-hFc respectively and coat 100 µL/well on ELISA plate (cat: 9018, supplier Corning) respectively. Incubate O/N, 4° C. The plates were blocked with 250 µL 1% BSA in PBST for 1 hr at 37° C.Wash 4 times with PBST. All the washes are done using Biotek (Elx 405). All the Tribody set antibodies were diluted to 400 nM and make 4-fold serially dilutions (12 points, including 0 point). Add 100 µL/well diluted antibody constructs solution to plate, incubate for 1 hr at 37° C.Wash 4 times with PBST. Add 100 µL/well anti-human kappa light chain-HRP (1:10000), incubate for 0.5 hr at 37° C. Wash 4 times with PBST. 100 µL/well of TMB substrate was added and incubated at room temperature for 5 min. 100 µL/well of 1N HCl to terminate reaction. Plates were read using ELISA plate reader at 450 nm wavelength (instrunet SpectraMax M5e). Data Analysis was performed using Graphpad prism 5 software by using nonlinear regression (curve fit): log (agonist) vs. response, agonist is antibody concentration (nM) and response is OD value.

[3] = target: T3, NKG2A/CD94 on CHO cells (CHOK1-NKG2A-CD94) (human, UniProt P26715 1-233; Q13241 1-179, limits assumed); test: competitive FACS receptor-ligand blocking assay on CHOK1-NKG2A-CD94 cells, labelled ligand HLA-E PE (FIG. 49)
T3 construct: whole, on cells; also called CHO cells over-expressing NKG2A/CD94; CHO cell line over expressing ectopic NKG2A

[4] = target: T4, NKG2A on NK92 cells (endogenous) (UniProt P26715 1-233, limits assumed); test: FACS on NK92 cells, endogenous NKG2A (FIG. 45C)
T4 construct: whole, on cells
Description: as §1

[5] = target: T3, NKG2A/CD94 on CHO cells …; test: FACS on CHO cells over-expressing ectopic NKG2A (NKG2A/CD94 by the legend) (FIG. 45E)
Description: as §1

[6] = target: T5, NKG2A-CD94-ECD-hFc (human, UniProt P26715 94-233; Q13241 32-179, limits assumed); test: ELISA on coated NKG2A-CD94-ECD-hFc (FIG. 43C)
T5 construct: extracellular domain; Lot 20200724002, 'provided by CP'; the two-chain layout here is only the reading of the name; also called human NKG2A (recombinant); NKG2A antigen; not shown: human Fc (hFc)
Description: as §2

[7] = target: T1, 5T4 on cells (NCI-H226 endogenous; CHO …); test: FACS on CHO cells over-expressing ectopic 5T4 (FIG. 45D)
Description: Then wash the cells 3 times with 170 µL FACS buffer. Re-suspend the cells at 100 µL/well with secondary antibody (goat anti-human Ig Fab-FITC, Cat # 2085-02, Southern biotech) with 1:400 dilution and incubate the plate for 30 min at 4° C. in dark. Centrifuge the plate at 2000 rpm, 4° C. for 5 min and discard supernatant. Then wash the cells 3 times with FACS buffer and analyze the sample with FACS verse. The fluorescence intensity of the staining was measured using flow cytometer (BD, FACSVerse). The geometric mean fluorescence intensity (GMFI; median fluorescence intensity (MFI)) of set antibodies staining was calculated (BD FACSuite software). Dose-response curves were generated and EC50s for thetrispecific variants binding were calculated using GraphPad Prism software.
Results: The expressed trispecific constructs were analyzed for their binding to cells expressing endogenous CD3ε, 5T4 and NKG2A/NKG2D. […] (FIG. 45F).

T3 sequence (P26715 whole entry, chain 1 of 2): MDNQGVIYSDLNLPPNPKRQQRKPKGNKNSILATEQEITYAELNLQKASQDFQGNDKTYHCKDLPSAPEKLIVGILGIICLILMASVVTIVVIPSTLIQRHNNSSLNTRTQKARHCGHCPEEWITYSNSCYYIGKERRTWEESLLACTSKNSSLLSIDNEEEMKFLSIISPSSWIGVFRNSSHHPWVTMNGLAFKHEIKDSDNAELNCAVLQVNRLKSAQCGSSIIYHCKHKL
T3 sequence (Q13241 whole entry, chain 2 of 2): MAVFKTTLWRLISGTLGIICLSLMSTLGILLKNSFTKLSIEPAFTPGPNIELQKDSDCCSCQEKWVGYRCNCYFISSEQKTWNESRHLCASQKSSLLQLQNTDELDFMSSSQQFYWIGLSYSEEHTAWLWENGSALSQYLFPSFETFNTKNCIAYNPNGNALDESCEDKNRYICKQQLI
T4 sequence (P26715 whole entry): as the sequence (P26715 whole entry, chain 1 of 2) above
T5 sequence (P26715 94-233 limits assumed, chain 1 of 2): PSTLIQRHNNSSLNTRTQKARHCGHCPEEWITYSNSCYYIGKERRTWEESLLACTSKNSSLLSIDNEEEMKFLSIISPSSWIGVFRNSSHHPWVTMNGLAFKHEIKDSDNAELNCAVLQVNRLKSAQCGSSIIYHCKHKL
T5 sequence (Q13241 32-179 limits assumed, chain 2 of 2): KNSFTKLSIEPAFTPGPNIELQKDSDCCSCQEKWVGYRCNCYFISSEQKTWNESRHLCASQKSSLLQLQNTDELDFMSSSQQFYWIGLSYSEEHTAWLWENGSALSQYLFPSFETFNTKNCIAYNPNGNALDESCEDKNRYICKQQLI

| Binder | EC50 [1] [nM] | EC50 [2] [nM] | IC50 [3] [nM] | EC50 [4] [nM] | EC50 [5] [nM] | EC50 [6] [nM] | EC50 [7] [nM] |
| --- | --- | --- | --- | --- | --- | --- | --- |
| IM-1063 variant (other, CD3/5T4/NKG2A Tribody variant) heavy: GGSGGSEVQLVESGGGLVQPGGSLRLSCAASGFTFNTYAMNWVRQAPGKGLEWVARIRSKYNNYATYYADSVKDRFTISRDDSKNTLYLQMNSLRAEDTAVYYCVRHGNFGNSYVSWFAYWGQGTMVTVSSASTKGPSVFPLAPSSKSTSGGTAALGCLVKDYFPEPVTVSWNSGALTSGVHTFPAVLQSSGLYSLSSVVTVPSSSLGTQTYICNVNHKPSNTKVDKRVEPKSCPPCGGGGSQVQLVQSGAEVKKPGASVKVSCKASGYTFTSYWMNWVRQAPGQGLEWMGRIDPYDSETHYAQKLQGRVTMTTDTSTSTAYMELRSLRSDDTAVYYCARGGYDFDVGTLYWFFDVWGQGTTVTVSSGGGGSGGGGSGGGGSGGGGSDIQMTQSPSSLSASVGDRVTITCRASENIYSYLAWYQQKPGKAPKLLIYNAKTLAEGVPSRFSGSGSGTDFTLTISSLQPEDFATYYCQHHYGTPRTFGGGTKVEIK light: GGSGGSQAVVTQEPSLTVSPGGTVTLTCRSSTGAVTTSNYANWVQQKPGQAPRGLIGGTNKRAPGTPARFSGSLLGGKAALTLSGVQPEDEAEYYCALWYSNLWVFGGGTKLTVLGQPKAAPSVTLFPPSSEELQANKATLVCLISDFYPGAVTVAWKADSSPVKAGVETTTPSKQSNNKYAASSYLSLTPEQWKSHRSYSCQVTHEGSTVEKTVAPTECPPCSGGGSDIQMTQSPSSLSASVGDRVTITCRASQGISNYLAWFQQKPGKAPKSLIYRANRLQSGVPSRFSGSGSGTDFTLTISSLQPEDVATYYCLQYDDFPWTFGQGTKLEIKGGGGSGGGGSGGGGSGGGGSQVQLVQSGAEVKKPGASVKVSCKASGYTFTSFWMHWVRQAPGQGLEWMGRIDPNRGGTEYNEKAKSRVTMTADKSTSTAYMELSSLRSEDTAVYYCAGGNPYYPMDYWGQGTTVTVSS | 1.64 |  |  |  |  |  |  |
| IM-1153 Tribody, CD3 mutant variant (other) heavy: GGSGGSEVQLVESGGGLVQPGGSLRLSCAASGFTFNTYAMNWVRQAPGKGLEWVARIGSGGNGYATYYADSVKDRFTISRDDSKNTLYLQMNSLRAEDTAVYYCVRHGNFGASARSWFAYWGQGTMVTVSSASTKGPSVFPLAPSSKSTSGGTAALGCLVKDYFPEPVTVSWNSGALTSGVHTFPAVLQSSGLYSLSSVVTVPSSSLGTQTYICNVNHKPSNTKVDKRVEPKSCPPCGGGGSDIQMTQSPSSLSASVGDRVTITCRASENIYSYLAWYQQKPGKAPKLLIYNAKTLAEGVPSRFSGSGSGTDFTLTISSLQPEDFATYYCQHHYGTPRTFGGGTKVEIKGGGGSGGGGSGGGGSGGGGSQVQLVQSGAEVKKPGASVKVSCKASGYTFTSYWMNWVRQAPGQGLEWMGRIDPYDSETHYAQKLQGRVTMTTDTSTSTAYMELRSLRSDDTAVYYCARGGYDFDVGTLYWFFDVWGQGTTVTVSS light: GGSGGSQAVVTQEPSLTVSPGGTVTLTCRSSTGAVTRGNAANWVQQKPGQAPRGLIGGTNARAPGTPARFSGSLLGGKAALTLSGVQPEDEAEYYCALGYSGLWVFGGGTKLTVLGQPKAAPSVTLFPPSSEELQANKATLVCLISDFYPGAVTVAWKADSSPVKAGVETTTPSKQSNNKYAASSYLSLTPEQWKSHRSYSCQVTHEGSTVEKTVAPTECPPCSGGGSDIQMTQSPSSLSASVGDRVTITCRASQGISNYLAWFQQKPGKAPKSLIYRANRLQSGVPSRFSGSGSGTDFTLTISSLQPEDVATYYCLQYDDFPWTFGQGTKLEIKGGGGSGGGGSGGGGSGGGGSQVQLVQSGAEVKKPGASVKVSCKASGYTFTSFWMHWVRQAPGQGLEWMGRIDPNRGGTEYNEKAKSRVTMTADKSTSTAYMELSSLRSEDTAVYYCAGGNPYYPMDYWGQGTTVTVSS |  | 31 | 18 | 3.7 | 3 | 2.1 | 1.33 |
| IM-1155 Tribody, additional CD3 epsilon mutant variant (other) heavy: GGSGGSEVQLVESGGGLVQPGGSLRLSCAASGFTFNGGSGGWVRQAPGKGLEWVAGGGSGGGGSGGGSGGSGGGRFTISRDDSKNTLYLQMNSLRAEDTAVYYCVRGGGSGGSGGSGGGGWGQGTMVTVSSASTKGPSVFPLAPSSKSTSGGTAALGCLVKDYFPEPVTVSWNSGALTSGVHTFPAVLQSSGLYSLSSVVTVPSSSLGTQTYICNVNHKPSNTKVDKRVEPKSCPPCGGGGSDIQMTQSPSSLSASVGDRVTITCRASENIYSYLAWYQQKPGKAPKLLIYNAKTLAEGVPSRFSGSGSGTDFTLTISSLQPEDFATYYCQHHYGTPRTFGGGTKVEIKGGGGSGGGGSGGGGSGGGGSQVQLVQSGAEVKKPGASVKVSCKASGYTFTSYWMNWVRQAPGQGLEWMGRIDPYDSETHYAQKLQGRVTMTTDTSTSTAYMELRSLRSDDTAVYYCARGGYDFDVGTLYWFFDVWGQGTTVTVSS light: GGSGGSQAVVTQEPSLTVSPGGTVTLTCGSSGGGSGGGGSGGWVQQKPGQAPRGLIGGGSGGGSGTPARFSGSLLGGKAALTLSGVQPEDEAEYYCGGGGSGGGGFGGGTKLTVLGQPKAAPSVTLFPPSSEELQANKATLVCLISDFYPGAVTVAWKADSSPVKAGVETTTPSKQSNNKYAASSYLSLTPEQWKSHRSYSCQVTHEGSTVEKTVAPTECPPCSGGGSDIQMTQSPSSLSASVGDRVTITCRASQGISNYLAWFQQKPGKAPKSLIYRANRLQSGVPSRFSGSGSGTDFTLTISSLQPEDVATYYCLQYDDFPWTFGQGTKLEIKGGGGSGGGGSGGGGSGGGGSQVQLVQSGAEVKKPGASVKVSCKASGYTFTSFWMHWVRQAPGQGLEWMGRIDPNRGGTEYNEKAKSRVTMTADKSTSTAYMELSSLRSEDTAVYYCAGGNPYYPMDYWGQGTTVTVSS |  |  | 60 |  |  |  |  |
